According to patent publication US20230346960A1:
No end group written: not given here.

Biological target: collagen IV/laminin (2% reduced growth factor Matrigel, Corning #354230)
Assay: plate binding assay, biotinylated molecule on Matrigel-coated plate, streptavidin-HRP, absorbance 450 nm

B1: DS-SILY4 (biotinylated; dermatan sulfate backbone with 4 SILY peptide substitutions per DS) (peptide)
peptide: RRANAALKAGELYKSILYGSG
modifications: not fully specified (C-terminus); also: about 4 peptides per dermatan sulfate, one equivalent N-terminally biotinylated SILY-hydrazide also conjugated
  binding capacity: 1.1 AU
